US20220242952A1 (MorphoSys, published 2022)
Values joined by “and” are separate entries in the source; they are usually repeats but may differ in a detail not shown here. Identical values can stand only once. One block for each molecule: values may come before it.

Experiments:
CD20 [1] = target: CD20 (UniProt P11836); assay: cell-based or functional assay
CD20 [2] = target: CD20 (UniProt P11836); assay: flow cytometry, QuantiBRITE PE quantitation, Toledo (DLBCL) cells
CD20 [3] = target: CD20 (UniProt P11836); assay: flow cytometry, QuantiBRITE PE quantitation, MEC-1 (CLL) cells
CD20 [4] = target: CD20 (UniProt P11836); assay: flow cytometry, QuantiBRITE PE quantitation, JVM-2 (MCL) cells
CD19 [5] = target: T1, CD19 (human, UniProt P15391 20-556); assay: flow cytometry, QuantiBRITE PE quantitation, Toledo (DLBCL) cells
T1 sequence: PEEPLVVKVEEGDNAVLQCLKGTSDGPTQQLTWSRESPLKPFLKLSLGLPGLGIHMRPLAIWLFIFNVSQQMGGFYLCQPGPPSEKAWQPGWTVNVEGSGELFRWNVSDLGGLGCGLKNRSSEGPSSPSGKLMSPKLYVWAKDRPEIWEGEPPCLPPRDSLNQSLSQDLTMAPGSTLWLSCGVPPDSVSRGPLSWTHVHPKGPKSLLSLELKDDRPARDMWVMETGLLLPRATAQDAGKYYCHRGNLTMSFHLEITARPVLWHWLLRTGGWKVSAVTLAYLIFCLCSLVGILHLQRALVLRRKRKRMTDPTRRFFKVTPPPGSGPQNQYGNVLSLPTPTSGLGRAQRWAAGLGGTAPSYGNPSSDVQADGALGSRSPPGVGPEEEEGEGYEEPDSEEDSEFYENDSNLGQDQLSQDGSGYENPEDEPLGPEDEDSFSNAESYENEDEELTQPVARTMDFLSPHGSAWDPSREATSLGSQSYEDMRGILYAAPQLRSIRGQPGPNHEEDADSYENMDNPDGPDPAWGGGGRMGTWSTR

CD19 [6] = target: T1, CD19; assay: flow cytometry, QuantiBRITE PE quantitation, MEC-1 (CLL) cells
CD19 [7] = target: T1, CD19; assay: flow cytometry, QuantiBRITE PE quantitation, JVM-2 (MCL) cells
CD19 [8] = target: T1, CD19; assay: cell-based or functional assay

Chain of CD20 (P11836 whole entry): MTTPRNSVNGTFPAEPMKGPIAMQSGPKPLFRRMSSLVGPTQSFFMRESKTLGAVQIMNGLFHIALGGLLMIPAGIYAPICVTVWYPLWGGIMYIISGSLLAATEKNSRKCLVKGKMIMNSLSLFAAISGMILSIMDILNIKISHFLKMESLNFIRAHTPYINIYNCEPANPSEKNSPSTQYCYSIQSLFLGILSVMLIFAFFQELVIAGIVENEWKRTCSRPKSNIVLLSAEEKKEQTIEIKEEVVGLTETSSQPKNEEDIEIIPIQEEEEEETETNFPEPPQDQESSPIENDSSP

Molecule: Rituximab (antibody)
% specific killing, ADCC with NK cells, JVM-2 cells, E:T 0.1:1, 10 ug/ml antibody (CD20 [1]): 0.5%
% specific killing, ADCC with NK cells, JVM-2 cells, E:T 3:1 and 6:1, 10 ug/ml antibody (CD20 [1]): 39% and 48%
% specific killing, ADCC with NK cells, MEC-1 cells, E:T 0.1:1, 10 ug/ml antibody (CD20 [1]): 3%
% specific killing, ADCC with NK cells, Toledo cells, E:T 0.1:1, 10 ug/ml antibody (CD20 [1]): 3%
% specific killing, ADCC with NK cells, Toledo cells, the two higher E:T ratios, 10 ug/ml antibody (CD20 [1]): 60%

antibodies bound per cell (ABC) (antibodies bound per cell) (CD20 [2]): 28000
antibodies bound per cell (ABC) (antibodies bound per cell) (CD20 [3]): 71300
antibodies bound per cell (ABC) (antibodies bound per cell) (CD20 [4]): 15500
Molecule: Biolegend CD20-PE (Biolegend #302306; clone 2H7) (antibody)

antibodies bound per cell (ABC) (antibodies bound per cell) (CD19 [5]): 35700
antibodies bound per cell (ABC) (antibodies bound per cell) (CD19 [6]): 60900
antibodies bound per cell (ABC) (antibodies bound per cell) (CD19 [7]): 26200
Molecule: Biolegend CD19-PE (Biolegend #302208; clone HIB19) (antibody)

B1: MOR00208 (antibody, human IgG1, kappa, V domains shown)
VH: EVQLVESGGGLVKPGGSLKLSCAASGYTFTSYVMHWVRQAPGKGLEWIGYINPYNDGTKYNEKFQGRVTISSDKSISTAYMELSSLRSEDTAMYYCARGTYYYGTRVFDYWGQGTLVTVSS
VL: DIVMTQSPATLSLSPGERATLSCRSSKSLQNVNGNTYLYWFQQKPGQSPQLLIYRMSNLNSGVPDRFSGSGSGTEFTLTISSLEPEDFAVYYCMQHLEYPITFGAGTKLEIKR
% specific killing, ADCC with NK cells, Toledo cells, the two higher E:T ratios, 10 ug/ml antibody (CD19 [8]): ~60%
specific killing ratio compared to Rituximab, individual donor 296, JVM-2 cells, lowest E:T ratio (CD19 [8]): ≤ 20 fold
specific killing ratio compared to Rituximab, individual donor 299, Toledo cells, lowest E:T ratio (CD19 [8]): ≤ 30 fold
specific killing ratio normalized to Rituximab, JVM-2 cells, E:T 0.1:1, median of donors (CD19 [8]): 5.3 fold
specific killing ratio normalized to Rituximab, Toledo cells, E:T 0.1:1, median of donors (CD19 [8]): 2.5 fold
specific killing ratio over Rituximab, MEC-1 cells, E:T 0.1:1, average of 17 donors (CD19 [8]): 1.6 fold
